This note sets out measurements from patent US20240392024A1 (SHANGHAI CELGEN BIO PHARMACEUTICAL, published 2024).

Where “and” joins values, the source holds several entries; their conditions need not be identical. Equal values may be shown once.

For experiment [1], the target named is T1, TNFR2-His (Sino Biological, 10417-H08H, NP_001057.1 Met1-Asp257, with multi-histidine tag expressed on … (human, UniProt P20333 23-257)).
T1 construct: range 1-257; Bought protein; also called recombinant human TNFR2 protein; TNFR2-His antigen; not shown: C-terminal multi-histidine tag
T1 sequence (looked up): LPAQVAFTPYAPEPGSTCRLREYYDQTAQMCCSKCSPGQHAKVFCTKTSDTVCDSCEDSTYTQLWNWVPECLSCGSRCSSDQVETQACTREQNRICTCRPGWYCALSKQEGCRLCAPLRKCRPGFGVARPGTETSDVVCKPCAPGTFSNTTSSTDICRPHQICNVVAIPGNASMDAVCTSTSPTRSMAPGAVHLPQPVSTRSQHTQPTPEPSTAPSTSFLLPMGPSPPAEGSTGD
As to the kind of experiment: ELISA, plate coated with TNFR2-His (first test). The method in brief:
(§1)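 Antibodies were serially diluted and incubated on blocked ELISA plates coated with C-terminally His-tagged recombinant human TNFR2. Detection used an enzyme-labelled anti-IgG secondary antibody, TMB development and a microplate reader, and the dilution series gave the EC50.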
On the technique in general: In an ELISA, binding on a coated surface is turned into a signal by an enzyme label.

Experiment [2] deals with T1, TNFR2-His (Sino Biological, 10417-H08H, …). The experiment in a line: BLI, antibody captured on AHC probe, TNFR2 in solution. The method in brief:
(§2)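 Antibodies at 50 nM in Q buffer were held on antibody-capture sensors, and the sensors were then moved into recombinant human TNFR2 diluted 2-fold in Q buffer, starting from 100 nM. Q buffer was 10 mM PBS pH 7.4 with 0.02% Tween 20 and 0.2% BSA. The work used bio-layer interferometry on an Octet in Basic Kinetics mode, and Kon, koff and Kd come from these kinetic association measurements.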
In general terms: BLI is a label-free optical method that tracks binding on a fibre tip over time.

The target of experiment [3] is T2, human TNFR2 on the cell membrane (human, UniProt P20333 23-461).
T2 construct: whole, on cells; One molecule for all cell formats; also called TNFR2-CHO cells; CHO-TNFR2
T2 sequence (looked up): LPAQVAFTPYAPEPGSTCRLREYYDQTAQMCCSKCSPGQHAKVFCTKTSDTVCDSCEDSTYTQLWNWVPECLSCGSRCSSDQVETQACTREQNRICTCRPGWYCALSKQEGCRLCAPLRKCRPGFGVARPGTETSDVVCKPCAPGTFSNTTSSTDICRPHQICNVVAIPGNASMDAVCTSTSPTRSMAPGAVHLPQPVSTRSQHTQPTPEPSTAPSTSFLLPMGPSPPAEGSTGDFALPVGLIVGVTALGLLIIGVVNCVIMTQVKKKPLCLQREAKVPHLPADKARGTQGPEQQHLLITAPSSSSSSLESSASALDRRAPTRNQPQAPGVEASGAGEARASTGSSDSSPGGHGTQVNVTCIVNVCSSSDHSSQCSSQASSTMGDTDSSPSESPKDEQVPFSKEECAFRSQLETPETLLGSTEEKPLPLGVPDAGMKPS
As to the kind of experiment: flow cytometry on CHO-TNFR2 cells. The method in brief: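 Binding was measured by flow cytometry (Beckman CytoFLEX) on a CHO line stably overexpressing human TNFR2. Cells in 96-deep-well plates were exposed to serially diluted antibodies, washed and labelled with a fluorescent anti-IgG secondary antibody, and EC50 was determined across the dilutions.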
On the technique in general: Flow cytometry measures light scatter and fluorescence of single cells or particles in a stream.

In experiment [4] the target is T1, TNFR2-His (Sino Biological, 10417-H08H, …). As to the kind of experiment: ELISA, plate coated with TNFR2-His. Put shortly: as §1
For experiment [5] the target is unchanged. The experiment in a line: ELISA, coated TNFR2-His. Put shortly:
as §1

The target is the same in experiment [6]. As to the kind of experiment: BLI, antibody captured on AHC probe, TNFR2-His in solution. The method in brief: as §2

B1: 12E12huVH1+huVL1(P07277) (antibody, V domains shown)
VH: EVQLVQSGAEVKKPGASVKLSCTVSGFNIKDFYIHWVRQAPGQGLEWIGRVDPEDGNTEYAPNFQDRATMTTDTSTNTAYLELSSLRSEDTAVYYCSTWDGFSYFDYWGQGTTVTVSS
VL: QAVVTQEPSLTVSPGGTVTLTCRSSTGPVTTNNYANWVQQKPGQAFRGLIGGTNDRAPGVPARFSGSLIGDKTALTLSGVQPEDEAEYYCALWYRNHWVFGGGTKLTVL
The EC50 is the midpoint of the concentration-response curve. Low readings indicate an effect from little substance, high ones a need for much substance. Turning to B1, the EC50 in experiment [1] is 0.0606 µg/mL and 0.406 nM.

B2: 12E12huVH3 + huVL2(P07282) (antibody, V domains shown)
VH: QVQLVQSGAEVKKPGASVKVSCKVSGFNIKDFYIHWVRQAPGKGLEWMGRVDPEDGNTEYAQKFQGRVTMTTDTSTDTAYMELSSLRSEDTAVYYCSTWDGFSYFDYWGQGTTVTVSS
VL: QAVVTQEPSLTVSPGGTVTLTCRSSTGPVTTNNYANWVQQKPGQAFRGLIGGTNDRAPGVPARFSGSLLGGKAALTLSGAQPEDEAEYYCALWYRNHWVFGGGTKLTVL
notes: Humanized 12E12
One may read the Kd as the constant that tells how readily two partners part at equilibrium. A high value points to a looser complex. In general, koff refers to the first-order rate constant of dissociation. Lower therefore signals slow dissociation. The kon is the second-order rate constant of association. Higher therefore signals faster complex formation. As for B2, in experiment [2], binding was put at a Kd of 6.38 nM, the koff was 0.00487 s⁻¹ and the kon is 764000 M⁻¹ s⁻¹. For the same molecule, the EC50 in experiment [1] is 0.045 µg/mL and 0.301 nM. For the same molecule, in experiment [3], the EC50 is 0.0203 µg/mL and 0.136 nM.

B3: 12E12huVH5 + huVL2(P07286) (antibody, V domains shown)
VH: EVQLVQSGAEVKKPGATVKISCKVSGFNIKDFYIHWVQQAPGKGLEWIGRVDPEDGNTEYAEKFQGRVTITADTSTDTAYMELSSLRSEDTAVYYCSTWDGFSYFDYWGQGTTVTVSS
VL: QAVVTQEPSLTVSPGGTVTLTCRSSTGPVTTNNYANWVQQKPGQAFRGLIGGTNDRAPGVPARFSGSLLGGKAALTLSGAQPEDEAEYYCALWYRNHWVFGGGTKLTVL
notes: Humanized 12E12
In experiment [2], B3 gave a Kd of 1.71 nM, a koff of 0.00197 s⁻¹ and a kon of 1.15e+06 M⁻¹ s⁻¹. The EC50 in experiment [1] was 0.0754 µg/mL and 0.505 nM. In addition, the EC50 in experiment [3] was 0.149 µg/mL and 1 nM.

B4: 12E12huVH2+huVL2(P07279) (antibody, V domains shown)
VH: QVQLVQSGAEVKKPGASVKVSCKVSGFNIKDFYIHWVRQAPGQGLEWIGRVDPEDGNTEYAPNFQDRATMTTDTSTSTAYLELSSLRSEDTAVYYCSTWDGFSYFDYWGQGTTVTVSS
VL: QAVVTQEPSLTVSPGGTVTLTCRSSTGPVTTNNYANWVQQKPGQAFRGLIGGTNDRAPGVPARFSGSLLGGKAALTLSGAQPEDEAEYYCALWYRNHWVFGGGTKLTVL
B4: the EC50 in experiment [1] was 0.0687 µg/mL and 0.46 nM.

B5: 12E12huVH2+huVL1(P07278) (antibody, V domains shown)
VH: QVQLVQSGAEVKKPGASVKVSCKVSGFNIKDFYIHWVRQAPGQGLEWIGRVDPEDGNTEYAPNFQDRATMTTDTSTSTAYLELSSLRSEDTAVYYCSTWDGFSYFDYWGQGTTVTVSS
VL: QAVVTQEPSLTVSPGGTVTLTCRSSTGPVTTNNYANWVQQKPGQAFRGLIGGTNDRAPGVPARFSGSLIGDKTALTLSGVQPEDEAEYYCALWYRNHWVFGGGTKLTVL
Turning to B5, in experiment [1], the EC50 is 0.0614 µg/mL and 0.411 nM.

B6: 12E12huVH3+huVL1(P07281) (antibody, V domains shown)
VH: QVQLVQSGAEVKKPGASVKVSCKVSGFNIKDFYIHWVRQAPGKGLEWMGRVDPEDGNTEYAQKFQGRVTMTTDTSTDTAYMELSSLRSEDTAVYYCSTWDGFSYFDYWGQGTTVTVSS
VL: QAVVTQEPSLTVSPGGTVTLTCRSSTGPVTTNNYANWVQQKPGQAFRGLIGGTNDRAPGVPARFSGSLIGDKTALTLSGVQPEDEAEYYCALWYRNHWVFGGGTKLTVL
Consider B6, for which the EC50 in experiment [1] was 0.0596 µg/mL and 0.399 nM.

B7: 12E12huVH4+huVL2(P07284) (antibody, V domains shown)
VH: EVQLVQSGAEVKKPGATVKISCKVSGFNIKDFYIHWVQQAPGKGLEWIGRVDPEDGNTEYAPNFQDRVTITADTSTDTAYMELSSLRSEDTAVYYCSTWDGFSYFDYWGQGTTVTVSS
VL: QAVVTQEPSLTVSPGGTVTLTCRSSTGPVTTNNYANWVQQKPGQAFRGLIGGTNDRAPGVPARFSGSLLGGKAALTLSGAQPEDEAEYYCALWYRNHWVFGGGTKLTVL
Regarding B7, in experiment [1], the EC50 was 0.049 µg/mL and 0.328 nM.

B8: 11G2huVH1 + huVL3(P07271) (antibody, V domains shown)
VH: QVQLVQSGAEVKKPGASVKLSCKASGYTFITYDINWVRQAPGQGLEWIGWIYPRDGNTQFNENFKGKATMTVDESTSTAYMEVRSLRSDDTAVYYCARGDRDYGYFDVWGQGTTVTVSS
VL: DIQMTQSPSSLSASVGDRVTITCQASQDISNYLNWYQQKPGKAPKLLIYFKSKLETGVPSRFSGSGSGTDFTFTISSLQPEDIATYYCQQGNTLPLTFGGGTKLEIK
notes: Humanized 11G2
B8: the EC50 in experiment [4] was 0.0715 µg/mL. The molecule further displayed an EC50 in experiment [5] of 0.479 nM. In experiment [6], this molecule showed a Kd of 8.4 nM, a koff of 0.00251 s⁻¹ and a kon of 299000 M⁻¹ s⁻¹.

B9: 11G2huVH3 + huVL3(P07273) (antibody, V domains shown)
VH: QVQLVQSGAEVKKPGASVKVSCKASGYTFITYDINWVRQATGQGLEWIGWIYPRDGNTQFNENFQGRVTMTRNTSISTAYMELSSLRSEDTAVYYCARGDRDYGYFDVWGQGTTVTVSS
VL: DIQMTQSPSSLSASVGDRVTITCQASQDISNYLNWYQQKPGKAPKLLIYFKSKLETGVPSRFSGSGSGTDFTFTISSLQPEDIATYYCQQGNTLPLTFGGGTKLEIK
notes: Humanized 11G2
As to B9, the EC50 in experiment [4] stood at 0.0778 µg/mL. In experiment [5], this molecule displayed an EC50 of 0.521 nM. In experiment [6], this molecule showed a Kd of 10.2 nM, a koff of 0.00255 s⁻¹ and an on-rate constant (kon) of 249000 M⁻¹ s⁻¹.

B10: 11G2huVH2 + huVL3(P07272) (antibody, V domains shown)
VH: QVQLVQSGAEVKKPGASVKVSCKASGYTFITYDINWVRQAPGQGLEWIGWIYPRDGNTQFNENFKGRVTMTTDTSTSTAYMELRSLRSDDTAVYYCARGDRDYGYFDVWGQGTTVTVSS
VL: DIQMTQSPSSLSASVGDRVTITCQASQDISNYLNWYQQKPGKAPKLLIYFKSKLETGVPSRFSGSGSGTDFTFTISSLQPEDIATYYCQQGNTLPLTFGGGTKLEIK
notes: Humanized 11G2
For the molecule B10, in experiment [4], it took 0.0859 µg/mL to reach a half-maximal effect (EC50). This molecule also registered a concentration giving a half-maximal response (EC50) in experiment [5] of 0.576 nM. In experiment [6], this molecule had a Kd of 10.6 nM, a koff of 0.00293 s⁻¹ and a kon of 276000 M⁻¹ s⁻¹.

B11: 12E12huVH3 + huVL4(P07290) (antibody, V domains shown)
VH: QVQLVQSGAEVKKPGASVKVSCKVSGFNIKDFYIHWVRQAPGKGLEWMGRVDPEDGNTEYAQKFQGRVTMTTDTSTDTAYMELSSLRSEDTAVYYCSTWDGFSYFDYWGQGTTVTVSS
VL: EAVVTQSPATLSLSPGERATLSCRSSTGPVTTNNYANWVQQKPGQAFRGLIGGTNDRAPGIPARFSGSGSGTDTTLTISSLQPEDFAVYYCALWYRNHWVFGGGTKLEIK
notes: Humanized 12E12
With B11, in experiment [2], the affinity, expressed as Kd, was 5.03 nM; the koff turned out to be 0.00407 s⁻¹; the kon was 810000 M⁻¹ s⁻¹. In addition, the concentration giving a half-maximal response (EC50) in experiment [1] was 0.059 µg/mL and 0.395 nM. The concentration for a half-maximal effect (EC50) in experiment [3] is 0.0367 µg/mL and 0.246 nM.

B12: 12E12huVH2+huVL4(P07289) (antibody, V domains shown)
VH: QVQLVQSGAEVKKPGASVKVSCKVSGFNIKDFYIHWVRQAPGQGLEWIGRVDPEDGNTEYAPNFQDRATMTTDTSTSTAYLELSSLRSEDTAVYYCSTWDGFSYFDYWGQGTTVTVSS
VL: EAVVTQSPATLSLSPGERATLSCRSSTGPVTTNNYANWVQQKPGQAFRGLIGGTNDRAPGIPARFSGSGSGTDTTLTISSLQPEDFAVYYCALWYRNHWVFGGGTKLEIK
Consider B12, for which, in experiment [1], the EC50 was 0.0672 µg/mL and 0.45 nM.

B13: 12E12huVH1+huVL4(P07288) (antibody, V domains shown)
VH: EVQLVQSGAEVKKPGASVKLSCTVSGFNIKDFYIHWVRQAPGQGLEWIGRVDPEDGNTEYAPNFQDRATMTTDTSTNTAYLELSSLRSEDTAVYYCSTWDGFSYFDYWGQGTTVTVSS
VL: EAVVTQSPATLSLSPGERATLSCRSSTGPVTTNNYANWVQQKPGQAFRGLIGGTNDRAPGIPARFSGSGSGTDTTLTISSLQPEDFAVYYCALWYRNHWVFGGGTKLEIK
As for B13, in experiment [1], the EC50 was 0.0739 µg/mL and 0.495 nM.
